Measured values from the FLAb antibody collection (doi:10.1101/2023.12.08.570889).

Legend:
[1] = molecular target: FXI; assay: Kd (SPR)
[2] = molecular target: IL36R; assay: Kd (SPR)

B1: unnamed (protein)
chain 1: EVQLLESGGGLVQPGGSLRLSCAASGFTFSQYGMDWVRQAPGKGLEWVSGIGPSGGSTVYADSVKGRFTISRDNSKNTLYLQMNSLRAEDTAVYYCTRDGPAWYYAFDVWGQGTTVTVSS
chain 2: DIQMTQSPSSLSASVGDRVTITCQASQDISNYLNWYQQKPGKAPKLLIYDASNLETGVPSRFSGSGSGTDFTFTISSLQPEDIATYYCQQADSFPVTFGGGTKVEIK
Kd [1]: 51.7 nM

B2: unnamed (protein)
chain 1: EVQLLESGGGLVQPGGSLRLSCAASGFTFSQYGMDWVRQAPGKGLEWVSGIGPSGGSTVYADSVKGRFTISRDNSKNTLYLQMNSLRAEDTAVYYCTRGGPAYYYAFDYWGQGTTVTVSS
chain 2: DIQMTQSPSSLSASVGDRVTITCQASQDISNYLNWYQQKPGKAPKLLIYDASNLETGVPSRFSGSGSGTDFTFTISSLQPEDIATYYCQQADSFPVTFGGGTKVEIK
Kd [1]: 306 nM

B3: unnamed (protein)
chain 1: EVQLLESGGGLVQPGGSLRLSCAASGFTFSQYGMDWVRQAPGKGLEWVSGIGPSGGSTVYADSVKGRFTISRDNSKNTLYLQMNSLRAEDTAVYYCARGGSAYYYAFDVWGQGTTVTVSS
chain 2: DIQMTQSPSSLSASVGDRVTITCQASQDISNYLNWYQQKPGKAPKLLIYDASNLETGVPSRFSGSGSGTDFTFTISSLQPEDIATYYCQQADSFPVTFGGGTKVEIK
Kd [1]: 822 nM

B4: unnamed (protein)
chain 1: EVQLLESGGGLVQPGGSLRLSCAASGFTFSQYGMDWVRQAPGKGLEWVSGIGPSGGSTVYADSVKGRFTISRDNSKNTLYLQMNSLRAEDTAVYYCTRDGPYYYYAFDYWGQGTTVTVSS
chain 2: DIQMTQSPSSLSASVGDRVTITCQASQDISNYLNWYQQKPGKAPKLLIYDASNLETGVPSRFSGSGSGTDFTFTISSLQPEDIATYYCQQADSFPVTFGGGTKVEIK
Kd [1]: 68 nM

B5: unnamed (protein)
chain 1: EVQLLESGGGLVQPGGSLRLSCAASGFTFSQYGMDWVRQAPGKGLEWVSGIGPSGGSTVYADSVKGRFTISRDNSKNTLYLQMNSLRAEDTAVYYCTRDGGAYYYAFDVWGQGTTVTVSS
chain 2: DIQMTQSPSSLSASVGDRVTITCQASQDISNYLNWYQQKPGKAPKLLIYDASNLETGVPSRFSGSGSGTDFTFTISSLQPEDIATYYCQQADSFPVTFGGGTKVEIK
Kd [1]: 135 nM

B6: unnamed (protein)
chain 1: EVQLLESGGGLVQPGGSLRLSCAASGFTFSQYGMDWVRQAPGKGLEWVSGIGPSGGSTVYADSVKGRFTISRDNSKNTLYLQMNSLRAEDTAVYYCTRDGPDYYYAFDYWGQGTTVTVSS
chain 2: DIQMTQSPSSLSASVGDRVTITCQASQDISNYLNWYQQKPGKAPKLLIYDASNLETGVPSRFSGSGSGTDFTFTISSLQPEDIATYYCQQADSFPVTFGGGTKVEIK
Kd [1]: 573 nM

B7: unnamed (protein)
chain 1: EVQLLESGGGLVQPGGSLRLSCAASGFTFSQYGMDWVRQAPGKGLEWVSGIGPSGGSTVYADSVKGRFTISRDNSKNTLYLQMNSLRAEDTAVYYCTRDGDAYYYAFDVWGQGTTVTVSS
chain 2: DIQMTQSPSSLSASVGDRVTITCQASQDISNYLNWYQQKPGKAPKLLIYDASNLETGVPSRFSGSGSGTDFTFTISSLQPEDIATYYCQQADSFPVTFGGGTKVEIK
Kd [1]: 625 nM

B8: unnamed (protein)
chain 1: EVQLLESGGGLVQPGGSLRLSCAASGFTFSQYGMDWVRQAPGKGLEWVSGIGPSGGSTVYADSVKGRFTISRDNSKNTLYLQMNSLRAEDTAVYYCTRGGPWYYYAFDVWGQGTTVTVSS
chain 2: DIQMTQSPSSLSASVGDRVTITCQASQDISNYLNWYQQKPGKAPKLLIYDASNLETGVPSRFSGSGSGTDFTFTISSLQPEDIATYYCQQADSFPVTFGGGTKVEIK
Kd [1]: 284 nM

B9: unnamed (protein)
chain 1: EVQLLESGGGLVQPGGSLRLSCAASGFTFSQYGMDWVRQAPGKGLEWVSGIGPSGGSTVYADSVKGRFTISRDNSKNTLYLQMNSLRAEDTAVYYCARDGPSWYYAFDVWGQGTTVTVSS
chain 2: DIQMTQSPSSLSASVGDRVTITCQASQDISNYLNWYQQKPGKAPKLLIYDASNLETGVPSRFSGSGSGTDFTFTISSLQPEDIATYYCQQADSFPVTFGGGTKVEIK
Kd [1]: 59.9 nM

B10: unnamed (protein)
chain 1: EVQLLESGGGLVQPGGSLRLSCAASGFTFSQYGMDWVRQAPGKGLEWVSGIGPSGGSTVYADSVKGRFTISRDNSKNTLYLQMNSLRAEDTAVYYCTRDGRSYYYAFDVWGQGTTVTVSS
chain 2: DIQMTQSPSSLSASVGDRVTITCQASQDISNYLNWYQQKPGKAPKLLIYDASNLETGVPSRFSGSGSGTDFTFTISSLQPEDIATYYCQQADSFPVTFGGGTKVEIK
Kd [1]: 750 nM

B11: unnamed (protein)
chain 1: EVQLLESGGGLVQPGGSLRLSCAASGFTFSQYGMDWVRQAPGKGLEWVSGIGPSGGSTVYADSVKGRFTISRDNSKNTLYLQMNSLRAEDTAVYYCARGGPAYYYAFDIWGQGTTVTVSS
chain 2: DIQMTQSPSSLSASVGDRVTITCQASQDISNYLNWYQQKPGKAPKLLIYDASNLETGVPSRFSGSGSGTDFTFTISSLQPEDIATYYCQQADSFPVTFGGGTKVEIK
Kd [1]: 430 nM

B12: unnamed (protein)
chain 1: EVQLLESGGGLVQPGGSLRLSCAASGFTFSQYGMDWVRQAPGKGLEWVSGIGPSGGSTVYADSVKGRFTISRDNSKNTLYLQMNSLRAEDTAVYYCTRGGTAYYYAFDVWGQGTTVTVSS
chain 2: DIQMTQSPSSLSASVGDRVTITCQASQDISNYLNWYQQKPGKAPKLLIYDASNLETGVPSRFSGSGSGTDFTFTISSLQPEDIATYYCQQADSFPVTFGGGTKVEIK
Kd [1]: 1410 nM

B13: unnamed (protein)
chain 1: EVQLLESGGGLVQPGGSLRLSCAASGFTFSQYGMDWVRQAPGKGLEWVSGIGPSGGSTVYADSVKGRFTISRDNSKNTLYLQMNSLRAEDTAVYYCARGGPAWYYAFDVWGQGTTVTVSS
chain 2: DIQMTQSPSSLSASVGDRVTITCQASQDISNYLNWYQQKPGKAPKLLIYDASNLETGVPSRFSGSGSGTDFTFTISSLQPEDIATYYCQQADSFPVTFGGGTKVEIK
Kd [1]: 204 nM

B14: unnamed (protein)
chain 1: EVQLLESGGGLVQPGGSLRLSCAASGFTFSQYGMDWVRQAPGKGLEWVSGIGPSGGSTVYADSVKGRFTISRDNSKNTLYLQMNSLRAEDTAVYYCTRGGPAYYYGFDYWGQGTTVTVSS
chain 2: DIQMTQSPSSLSASVGDRVTITCQASQDISNYLNWYQQKPGKAPKLLIYDASNLETGVPSRFSGSGSGTDFTFTISSLQPEDIATYYCQQADSFPVTFGGGTKVEIK
Kd [1]: 148 nM

B15: unnamed (protein)
chain 1: EVQLLESGGGLVQPGGSLRLSCAASGFTFSQYGMDWVRQAPGKGLEWVSGIGPSGGSTVYADSVKGRFTISRDNSKNTLYLQMNSLRAEDTAVYYCTRGGPAWYYAFDVWGQGTTVTVSS
chain 2: DIQMTQSPSSLSASVGDRVTITCQASQDISNYLNWYQQKPGKAPKLLIYDASNLETGVPSRFSGSGSGTDFTFTISSLQPEDIATYYCQQADSFPVTFGGGTKVEIK
Kd [1]: 241 nM

B16: unnamed (protein)
chain 1: EVQLLESGGGLVQPGGSLRLSCAASGFTFSQYGMDWVRQAPGKGLEWVSGIGPSGGSTVYADSVKGRFTISRDNSKNTLYLQMNSLRAEDTAVYYCARDGPAYYYAFDVWGQGTTVTVSS
chain 2: DIQMTQSPSSLSASVGDRVTITCQASQDISNYLNWYQQKPGKAPKLLIYDASNLETGVPSRFSGSGSGTDFTFTISSLQPEDIATYYCQQADSFPVTFGGGTKVEIK
Kd [1]: 84 nM

B17: unnamed (protein)
chain 1: QVQLVQSGAEVKKPGASVKVSCKASGYSFTSSWIHWVKQAPGQGLEWMGEINPGNVRTNYNENFRNKVTMTVDTSISTAYMELSRLRSDDTAVYYCTVVFYGEPYFPYWGQGTLVTVSS
chain 2: QIVLTQSPGTLSLSPGERATMTCTASSSVSSSYFHWYQQKPGQAPRLWIYRTSRLASGVPDRFSGSGSGTDFTLTISRLEPEDAATYYCHQFHRSPLTFGAGTKLEIK
Kd [2]: 0.964 nM

B18: unnamed (protein)
chain 1: QVQLVQSGAEVKKPGASVKVSCKASGYSFTSSWIHWVKQAPGQGLEWMGEINPGNVRTNYNENFRNKVTMTVDTSISTAYMELSRLRSDDTAVYYCTRSRYGEPWFDYWGQGTLVTVSS
chain 2: QIVLTQSPGTLSLSPGERATMTCTASSSVSSSYFHWYQQKPGQAPRLWIYRTSRLASGVPDRFSGSGSGTDFTLTISRLEPEDAATYYCHQFHRSPLTFGAGTKLEIK
Kd [2]: 24.5 nM

B19: unnamed (protein)
chain 1: QVQLVQSGAEVKKPGASVKVSCKASGYSFTSSWIHWVKQAPGQGLEWMGEINPGNVRTNYNENFRNKVTMTVDTSISTAYMELSRLRSDDTAVYYCTRVQYGEPYFDYWGQGTLVTVSS
chain 2: QIVLTQSPGTLSLSPGERATMTCTASSSVSSSYFHWYQQKPGQAPRLWIYRTSRLASGVPDRFSGSGSGTDFTLTISRLEPEDAATYYCHQFHRSPLTFGAGTKLEIK
Kd [2]: 0.617 nM
